From patent publication US20250388666A1 (BRIGHAM AND WOMEN S HOSPITAL, published 2025)
Several values for one entry are separate records, joined by “and”; a condition that tells them apart may be missing. Identical values can stand only once.

B1: VH2 N56Q/Vκ4 S27(f)A IgG (antibody, V domains shown)
VH: EVQLLESGGGLVQPGGSLRLSCAASGFSFSDYYLYWVRQAPGKGLEWVATISVGGGQTSYADSVKGRFTISRDNSKNTLYLQMNSLRAEDTAMYYCTRGLYYGPAWFAYWGQGTLVTVSS
VL: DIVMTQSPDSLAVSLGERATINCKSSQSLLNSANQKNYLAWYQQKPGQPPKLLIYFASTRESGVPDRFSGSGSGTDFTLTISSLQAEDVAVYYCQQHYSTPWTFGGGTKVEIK
notes: IgG4 S241P, kappa; also called Parent; Parent IgG
B2: chimeric parental antibody VH0/Vκ0 (antibody, IgG4, V domains shown)
VH: EVQLVESGGGFVKPGGSLKLSCAASGFSFSDYYLYWVRQTPEKRLEWVATISVGGGNTSYPDSVKGRFTISRDNAKNNLYLQMSSLKSEDTAMYYCTRGLYYGPAWFAYWGQGTLVTVSA
VL: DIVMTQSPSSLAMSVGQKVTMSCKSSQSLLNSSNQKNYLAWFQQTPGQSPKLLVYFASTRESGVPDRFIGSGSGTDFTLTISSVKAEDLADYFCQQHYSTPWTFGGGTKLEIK
notes: IgG4 (S241P), kappa; also called Chimera; chimeric antibody

What was measured:
[1] = target: T1, CEACAM1 (Sino Biological) (human, UniProt P13688 35-428, limits assumed); test: SPR single-cycle; one of the two experiments; the Parent of the other experiment reads 551 nM (r135)
T1 construct: may be the same as CEACAM1-HIS; also called hCEACAM1; biotinylated soluble CEACAM1
T1 sequence: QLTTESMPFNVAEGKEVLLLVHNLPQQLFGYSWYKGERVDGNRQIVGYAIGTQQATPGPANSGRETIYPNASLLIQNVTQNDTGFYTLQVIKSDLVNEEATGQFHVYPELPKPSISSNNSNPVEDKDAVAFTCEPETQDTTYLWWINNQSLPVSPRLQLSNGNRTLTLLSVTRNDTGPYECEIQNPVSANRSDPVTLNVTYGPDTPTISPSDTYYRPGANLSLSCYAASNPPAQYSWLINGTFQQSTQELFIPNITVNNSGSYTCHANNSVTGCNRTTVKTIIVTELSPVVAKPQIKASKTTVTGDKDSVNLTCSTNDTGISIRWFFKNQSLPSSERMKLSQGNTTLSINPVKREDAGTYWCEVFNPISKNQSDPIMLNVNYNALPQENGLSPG

[2] = target: T1, CEACAM1 (Sino Biological); test: SPR single-cycle
How it was run: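 Humanized affinity-matured IgGs from crude supernatants captured on Protein A to ~100 RU, with CEACAM1 analyte injected at 25–100 nM (three-point, two-fold) in HBS-P+ without regeneration. 200 s association per injection, 300 s single dissociation; reference-channel and blank subtracted.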

[3] = target: T1, CEACAM1 (Sino Biological); test: SPR multi-cycle, IgG on Protein A
[4] = target: T2, CEACAM1-HIS (Sino Biologics Inc.) (Homo sapiens (Human), UniProt P13688 35-428); test: SPR multi-cycle, IgG on Protein A
T2 construct: bought; not shown: His tag
T2 sequence: T1 sequence
Experimental: As an alternative approach to assess the binding of the antibody combinations and the control antibodies to CEACAM1, a kinetic analysis was performed on a Biacore T200 running Biacore T200 Evaluation Software V2.0.1. All experiments were run at 25° C. with HBS-P+ running buffer (pH 7.4).
For multi-cycle kinetic analysis purified antibody was immobilized at a protein concentration of 1 μg/mL in HBS-P+. At the start of each cycle, antibody was captured on Protein A to give an RU of ˜100 and the surface allowed to stabilize. Kinetic data was obtained at a flow rate of 35 μl/min to minimize any potential mass transfer effects. Multiple repeats of the blank (no CEACAM1) and a repeat of a single concentration of the analyte were programmed into the kinetic run in order to check the stability of both the surface and analyte over the kinetic cycles. For kinetic analysis, a 2-fold dilution series was selected from 100 to 1.5625 nM CEACAM1. The association phase of CEACAM1 was monitored initially for 180 seconds. In the subsequent experiment a longer association time (275 seconds) was used in order to better reach steady state. The dissociation phase was measured for 250 seconds. Regeneration of the Protein A surface was conducted using 2 injections of 10 mM glycine-HCL pH 1.5 at the end of each cycle.
The signal from the reference channel Fc1 was subtracted from that of Fc2, Fc3 and Fc4 to correct for differences in non-specific binding to a reference surface, a global Rmax parameter was used in the 1-to-1 binding model. The relative KD compared to the chimeric parental antibody was calculated by dividing the KD of the Composite Human Antibody™ variants by that of the chimeric parental antibody on the same chip.

| Binder | Kd [1] [µM] | Kd [2] [µM] | fold better than Parent (KD) [2] [fold] | relative KD to Parent [3] [ratio] | Kd [4] | koff [4] | kon [4] | relative KD to chimeric parental antibody [4] [ratio] |
| --- | --- | --- | --- | --- | --- | --- | --- | --- |
| B1 | 0.159 | 0.551 | 1 | 1 |  |  |  |  |
| B2 |  |  |  |  | 0.0272 µM and 0.0223 µM and 0.0195 µM | 0.0053 s⁻¹ and 0.00571 s⁻¹ and 0.00531 s⁻¹ | 195000 M⁻¹ s⁻¹ and 256000 M⁻¹ s⁻¹ and 272000 M⁻¹ s⁻¹ | 1 |
